# Laboratory results taken from patent US20200347127A1 (CRESCENDO BIOLOGICS, published 2020).
# Read-outs that look alike come from different tables or passages of the source.
# T1: IL17E
# T1 construct: also called IL-25
# T1 chain: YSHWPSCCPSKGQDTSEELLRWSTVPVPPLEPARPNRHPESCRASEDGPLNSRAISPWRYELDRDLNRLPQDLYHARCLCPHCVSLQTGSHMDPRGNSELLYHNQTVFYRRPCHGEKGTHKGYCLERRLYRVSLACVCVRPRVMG
# T2: IL-17C (UniProt Q9P0M4 19-197, limits assumed)
# T2 sequence (looked up): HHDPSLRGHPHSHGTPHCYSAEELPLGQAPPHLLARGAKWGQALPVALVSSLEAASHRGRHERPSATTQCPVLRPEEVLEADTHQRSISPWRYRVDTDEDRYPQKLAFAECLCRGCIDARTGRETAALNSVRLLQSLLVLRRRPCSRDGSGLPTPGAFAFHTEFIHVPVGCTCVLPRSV
# T3: IL-17F (UniProt Q96PD4 31-163, limits assumed)
# T3 sequence (looked up): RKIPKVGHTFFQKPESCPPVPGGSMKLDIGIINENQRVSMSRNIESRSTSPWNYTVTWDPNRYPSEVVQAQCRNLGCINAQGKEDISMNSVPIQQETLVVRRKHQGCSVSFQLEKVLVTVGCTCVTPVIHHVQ
# Experiments:
# [1] = target: T1, IL17E; assay: specificity ELISA on coated antigen, VH concentration not given
# [2] = target: T2, IL-17C; assay: as above
# [3] = target: T3, IL-17F; assay: as above
# [4] = target: T4, recombinant human IL-17A (human, UniProt Q16552 24-155); assay: competition ELISA, IL-17A binding to coated IL-17RA-Fc (FIG. 9B); FIG. 9B
# T4 construct: Bought recombinant protein (Peprotech AF-200-17); also called Peprotech AF-200-17
# Procedure: (§1) Following washing of excess coating antigen, as described above, the wells of the plate were incubated with 3% skimmed milk powder/PBS to block non-specific protein interactions. […] The mixture was then transferred to the assay plate and incubated for 1 hour at room temperature.
# (§2) Where appropriate, curve fitting in PRISM was used to determine the EC₅₀ of inhibiting VH.
# [5] = target: T4, recombinant human IL-17A; assay: SPR (BIAcore T200), IL-17A coupled to CM5 chip, single-cycle kinetics
# Procedure: (§3) VH binding kinetics were then determined from the (blank subtracted) sensorgram traces using 1:1 binding models and BIAevaluation software.
# [6] = target: T4, recombinant human IL-17A; assay: competition ELISA, IL-17A binding to coated IL-17RA-Fc
# Procedure: as §1, §2
# [7] = target: T4, recombinant human IL-17A; assay: cell-based or functional assay
# [8] = target: T4, recombinant human IL-17A; assay: cell-based or functional assay; remark: listed apart in the source
# [9] = target: T4, recombinant human IL-17A; assay: SPR (BIAcore T200), IL-17A coupled to CM5 chip, single-cycle kinetics; remark: listed apart in the source
# Procedure: as §3
# [10] = target: T4, recombinant human IL-17A; assay: BIAcore single-cycle kinetics, ligand Il-17, 1:1 binding fit, 25 C (n=1 per legend)
# [11] = target: T4, recombinant human IL-17A; assay: BIAcore single-cycle kinetics on IL-17A (n=2 per legend)
# [12] = target: T4, recombinant human IL-17A; assay: cell-based or functional assay; remark: listed apart in the source
# T4 sequence (Q16552 24-155): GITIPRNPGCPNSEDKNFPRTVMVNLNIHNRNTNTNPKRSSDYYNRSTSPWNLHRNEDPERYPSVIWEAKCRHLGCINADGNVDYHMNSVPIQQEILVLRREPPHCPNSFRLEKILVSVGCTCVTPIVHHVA
Binder,binding result [1],binding result [2],binding result [3],IC50 [4],Kd [5],koff [5],kon [5],IC50 [6],"Cell assay IC50 (nM), IL-17A-induced IL6 release from HT1080 [7]","Cell assay IC50 (nM), IL-17A-induced IL6 release from HT1080 [8]",Kd [9],koff [9],kon [9],Kd [10],koff [10],kon [10],Kd [11],EC50 [12]
"VH 1.1.1 (clone 1.1 expressed from phagemid vector: with linker residues and His tag) (VHH, Human single VH domain; also called Family 1 (clone 1.1)) VHH: EVQLVESGGGLVQPGGSLRLSCAASGFTFSSYSMYWVRQAPGKGLEWVANIKQDGSEKYYVDSVKGRFTISRDNAKNSLFLQMNSLRAEDTAVYYCAKGEILPLHFDYWGQGTLVTVSS",no binding,no binding,no binding,29 nM,5 nM,0.00149 s⁻¹,296000 M⁻¹ s⁻¹,53 nM,13 nM,13 nM,5 nM,0.00149 s⁻¹,296000 M⁻¹ s⁻¹,–,–,–,–,–
"3.2-6(G4S)-1.2 (VHH, also called Biparatopic 3.2-6(G4S)-1.2) VH-linker-VH: QVQLVQSGAEVKKPGASVKVSCKASGYNADAYYINWVRQAPGQGLEWMGSIKPNTGATKYAQKFQGRVTITRDTSISTAYMELSRLRSDDTAVYYCASLDRDTWYPHSYAGWFDAWGQGTLVTVSSAAGGGGSGGGGSGGGGSGGGGSGGGGSGGGGSEVQLVESGGGLVQPGGSLRLSCAASGFTFSSYSMYWVRQAPGKGLEWVAEIKQDGSVQYYVSDVKGRFTISRDNAKNSLYLQMNSLRAEDTAVYYCAKGEILPLYFDYWGQGTLVTVSS",–,–,–,–,–,–,–,–,–,–,–,–,–,0.0198 nM,3.02e-05 s⁻¹,1.52e+06 M⁻¹ s⁻¹,0.02 nM,0.923 nM
